# T1: 33-mer peptide from alpha-gliadin
# T1 chain: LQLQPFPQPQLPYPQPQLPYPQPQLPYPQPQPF
# B1: Recombinant E40 (histidine-tagged endopeptidase 40 of Actinoallomurus A8, mature form, produced in S. lividans TK24/pIJ86/e40) (protein)
# chain: AAPSGLSPANLQSAYKLPSSTAGSGQTVAIVDAYDAPTAEADLNVYRSQFGLGACTTANGCFKKVDQNGGTSYPRKDGGWAQEISLDLDMVSAVCPNCKIVLVEAKTNSFANLGTAENTAASLANVISNSYGGSDASDASYGSYYNHPGKAITVSSGDAGYGVEYPASSHYVTAVGGTSLRTASTSRGWSETAWSGAGSGCSAYNTALSGQSGLTGCSRRAVADVSAVADPATGVAVYDSTAYQGQSGWMVFGGTSVAAPIIGGVYGLAANAASIDNNYPYAHTSSLFDVTSGSNGTCTTTKWCTAGTGWDGPTGLGTPNGTGAFGHHHHHH
# Target: T1, 33-mer peptide from alpha-gliadin
protein,measurement,value
B1,"33-mer gliadin peptide degradation monitored by LC-MS/MS (1:48 enzyme vs substrate molar ratio, pH 5, 37 C): time to complete disappearance of the peptide",the native 33-mer peptide signal completely disappeared after only 15 minutes
same,33-mer gliadin peptide degradation monitored by LC-MS/MS (1:96 molar ratio): time to complete degradation,in that case complete 33-mer degradation took 30 minutes (not shown)
same,cleavage sites from MS/MS spectra of the digestion products,"E40 cleaving site occurs between F-P and Q-L residues of gliadin, leading to short peptides lacking of T-cell stimulatory capacity"
